The values that follow come from patent publication US20210210159A1, “COMPUTATIONAL PROTEIN DESIGN USING TERTIARY OR QUATERNARY STRUCTURAL MOTIFS” (Trustees of Dartmouth College, priority 2018, published 2021).

This data set can be described thus: Fast Protein Liquid Chromatography / size-exclusion chromatography, oligomeric state. It is filed as physicochemical. The following applies: concentration of at least 10 μM. From the text: Based on the standards, the dimeric protein would be expected to elute at the volume indicated by a dotted line, which eliminates the possibility of design oligomerization.

Turning to “native mCherry: Red Fluorescent Protein mCherry (PDB code 2H5Q), design template (SEQ ID NO. 1) [reference compound]”, the “oligomeric state in solution” value is “monomeric”.
